{"source": "the Human Domainome abundance scans (Beltran et al. 2025)", "parents": {"B1": {"name": "Endonuclease CUE2, residues 9 to 47; numbered along this chain, P36075 (parent)", "chain": "HESKLSILMDMFPAISKSKLQVHLLENNNDLDLTIGLLL"}}, "note": "± gives the uncertainty stated by the source."}
{"variants_of": "B1", "test": "abundance fitness (aPCA) (normalised: wild type 0, dead -1); higher = more abundant; growth selection in yeast, the domain comes from the species named", "details": "Saccharomyces cerevisiae (strain ATCC 204508 / S288c)"}
{"variant": "HSSKLSILMDMFPAISKSKLQVHLLENNNDLDLTIGLLL", "note": "[E2S]", "abundance fitness": "-0.319 ± 0.067"}
{"variant": "HESKLSILMDMFIAISKSKLQVHLLENNNDLDLTIGLLL", "note": "[P13I]", "abundance fitness": "-0.804 ± 0.17"}
{"variant": "HESKLSILMDMFRAISKSKLQVHLLENNNDLDLTIGLLL", "note": "[P13R]", "abundance fitness": "-0.951 ± 0.11"}
{"variant": "HESKLSILMDMFGAISKSKLQVHLLENNNDLDLTIGLLL", "note": "[P13G]", "abundance fitness": "-0.834 ± 0.07"}
{"variant": "HESKLYILMDMFPAISKSKLQVHLLENNNDLDLTIGLLL", "note": "[S6Y]", "abundance fitness": "0.32 ± 0.45"}
{"variant": "HESKLGILMDMFPAISKSKLQVHLLENNNDLDLTIGLLL", "note": "[S6G]", "abundance fitness": "-0.073 ± 0.032"}
{"variant": "HESKLRILMDMFPAISKSKLQVHLLENNNDLDLTIGLLL", "note": "[S6R]", "abundance fitness": "-0.027 ± 0.033"}
{"variant": "HESKLSILMDMFPAISKSKLFVHLLENNNDLDLTIGLLL", "note": "[Q21F]", "abundance fitness": "0.012 ± 0.16"}
{"variant": "HESKLSILMDMFPAISKSKLQVHLLENNNDLDLVIGLLL", "note": "[T34V]", "abundance fitness": "0.008 ± 0.037"}
{"variant": "HESKLSILMDMFPAISKSKLQVHLLENNNDLDLRIGLLL", "note": "[T34R]", "abundance fitness": "-0.993 ± 0.099"}
{"variant": "HESKLSILMDMFPAISKTKLQVHLLENNNDLDLTIGLLL", "note": "[S18T]", "abundance fitness": "0.015 ± 0.046"}
{"variant": "HESKLSILMDMFPAISKSKLQVHLLECNNDLDLTIGLLL", "note": "[N27C]", "abundance fitness": "-0.024 ± 0.07"}
{"variant": "HESKLSILMDMFPAISKSKLQVHLLEWNNDLDLTIGLLL", "note": "[N27W]", "abundance fitness": "-0.364 ± 0.074"}
{"variant": "HESKLSILMDMFPAISKSKLQVHLLEKNNDLDLTIGLLL", "note": "[N27K]", "abundance fitness": "-0.267 ± 0.14"}
{"variant": "HESKLSILMDMFPAISKSKLQVGLLENNNDLDLTIGLLL", "note": "[H23G]", "abundance fitness": "-0.342 ± 0.036"}
{"variant": "HESKLSILMDMFPAISKSKLQVKLLENNNDLDLTIGLLL", "note": "[H23K]", "abundance fitness": "-0.338 ± 0.1"}
{"variant": "HESKLSILMDMFPAISKSKLQVHLLENNNDLDLTIGLLT", "note": "[L39T]", "abundance fitness": "0.122 ± 0.044"}
{"variant": "HESKLSILMDMFPAISKSKLQVHLLENNNDLDLTIGLLQ", "note": "[L39Q]", "abundance fitness": "0.132 ± 0.05"}
{"variant": "HESKLSILMDMFPAISKSKLQVHLLENNNDLDLTIGLLK", "note": "[L39K]", "abundance fitness": "0.33 ± 0.094"}
{"variant": "HESKLSILMDMFPAISKSKLQVHLLENNNDLDLTIGLVL", "note": "[L38V]", "abundance fitness": "-0.27 ± 0.053"}
{"variant": "HESKLSILMDMFPAISKSKLQVHLLENNNDLDLTIGLTL", "note": "[L38T]", "abundance fitness": "-0.628 ± 0.12"}
{"variant": "HESKLSILMDMFPAISKSSLQVHLLENNNDLDLTIGLLL", "note": "[K19S]", "abundance fitness": "-0.059 ± 0.041"}
{"variant": "HESKLSILMDMFPAISKSKLQVHLLENNNGLDLTIGLLL", "note": "[D30G]", "abundance fitness": "-0.759 ± 0.067"}
{"variant": "HESKLSILMDMFPAISKSKLQVHLLENNNKLDLTIGLLL", "note": "[D30K]", "abundance fitness": "-0.165 ± 0.11"}
{"variant": "HESKLSILMDMFPAISKSKLQVHLLENNNSLDLTIGLLL", "note": "[D30S]", "abundance fitness": "-0.223 ± 0.072"}
{"variant": "HESKLSILMDMFPAISKSKLQVHLLENNNCLDLTIGLLL", "note": "[D30C]", "abundance fitness": "-0.261 ± 0.11"}
{"variant": "HESKLSILMDMFPAISKSKLQVHLLENNNDLDLTIGRLL", "note": "[L37R]", "abundance fitness": "0.081 ± 0.041"}
{"variant": "HESKLSILMDMFPAISKSKLQVHLLSNNNDLDLTIGLLL", "note": "[E26S]", "abundance fitness": "-0.131 ± 0.044"}
{"variant": "HESKLSILMDMFPAISKSKLQVHLLFNNNDLDLTIGLLL", "note": "[E26F]", "abundance fitness": "-0.59 ± 0.25"}
{"variant": "HESKLSILMDMFPAPSKSKLQVHLLENNNDLDLTIGLLL", "note": "[I15P]", "abundance fitness": "-1 ± 0.2"}
{"variant": "HESKLSILMDMFPALSKSKLQVHLLENNNDLDLTIGLLL", "note": "[I15L]", "abundance fitness": "-0.08 ± 0.063"}
{"variant": "HESNLSILMDMFPAISKSKLQVHLLENNNDLDLTIGLLL", "note": "[K4N]", "abundance fitness": "-0.023 ± 0.1"}
{"variant": "HESYLSILMDMFPAISKSKLQVHLLENNNDLDLTIGLLL", "note": "[K4Y]", "abundance fitness": "0.127 ± 0.21"}
{"variant": "HESRLSILMDMFPAISKSKLQVHLLENNNDLDLTIGLLL", "note": "[K4R]", "abundance fitness": "-0.038 ± 0.035"}
{"variant": "HESKLSILMNMFPAISKSKLQVHLLENNNDLDLTIGLLL", "note": "[D10N]", "abundance fitness": "-0.086 ± 0.055"}
{"variant": "HESKLSILMQMFPAISKSKLQVHLLENNNDLDLTIGLLL", "note": "[D10Q]", "abundance fitness": "-0.183 ± 0.064"}
{"variant": "HESKLSILMDMFPAISKSKLQVHLLENNNDLDHTIGLLL", "note": "[L33H]", "abundance fitness": "-0.456 ± 0.23"}
{"variant": "HESKLSILMDMFPAISKSKLQVHLLENNNDLDETIGLLL", "note": "[L33E]", "abundance fitness": "0.06 ± 0.042"}
{"variant": "HESKLSILMDMFPAIHKSKLQVHLLENNNDLDLTIGLLL", "note": "[S16H]", "abundance fitness": "0.384 ± 0.22"}
{"variant": "HESKLSILNDMFPAISKSKLQVHLLENNNDLDLTIGLLL", "note": "[M9N]", "abundance fitness": "-0.402 ± 0.1"}
{"variant": "HESKLSILRDMFPAISKSKLQVHLLENNNDLDLTIGLLL", "note": "[M9R]", "abundance fitness": "-0.049 ± 0.032"}
{"variant": "HESKLSILMDMFPAISKSKLQVHLTENNNDLDLTIGLLL", "note": "[L25T]", "abundance fitness": "0.048 ± 0.047"}
{"variant": "HESKLSILMDMFPAISKSKLQVHLVENNNDLDLTIGLLL", "note": "[L25V]", "abundance fitness": "0.039 ± 0.042"}
{"variant": "HESKLSILMDMFPAISKSKLQVHLPENNNDLDLTIGLLL", "note": "[L25P]", "abundance fitness": "-0.952 ± 0.15"}
{"variant": "HESKLSILMDMFPAISKSKLQVHLRENNNDLDLTIGLLL", "note": "[L25R]", "abundance fitness": "0.045 ± 0.033"}
{"variant": "HESKLSILMDMLPAISKSKLQVHLLENNNDLDLTIGLLL", "note": "[F12L]", "abundance fitness": "-0.644 ± 0.075"}
{"variant": "HESKLSIQMDMFPAISKSKLQVHLLENNNDLDLTIGLLL", "note": "[L8Q]", "abundance fitness": "-0.96 ± 0.33"}
{"variant": "HESKLSILMDMFPAISKSKLQVHLLENNNDLELTIGLLL", "note": "[D32E]", "abundance fitness": "-0.055 ± 0.054"}
{"variant": "HESKLSILMDMFPAISKSKLQVHLLENNNDLKLTIGLLL", "note": "[D32K]", "abundance fitness": "-0.003 ± 0.079"}
{"variant": "HESKLSILMDMFPAISKSKLQVHLLENNNDLLLTIGLLL", "note": "[D32L]", "abundance fitness": "-0.416 ± 0.078"}
{"variant": "HESKLSILMDMFPAISKSKLQVHLLENNNDLALTIGLLL", "note": "[D32A]", "abundance fitness": "-0.124 ± 0.039"}
{"variant": "HESKLSILMDMFPAISKSKLQSHLLENNNDLDLTIGLLL", "note": "[V22S]", "abundance fitness": "-0.055 ± 0.051"}
{"variant": "HESKLSILMDMFPAISKSKLQKHLLENNNDLDLTIGLLL", "note": "[V22K]", "abundance fitness": "0.03 ± 0.045"}
{"variant": "HESKLSILMDMFPAISKSKLQPHLLENNNDLDLTIGLLL", "note": "[V22P]", "abundance fitness": "-0.464 ± 0.07"}
{"variant": "HESKLSILMDMFPAISKSKLQVHLLENNPDLDLTIGLLL", "note": "[N29P]", "abundance fitness": "-0.324 ± 0.088"}
{"variant": "HESKLSILMDMFPAISKSKLQVHLLENNLDLDLTIGLLL", "note": "[N29L]", "abundance fitness": "-0.112 ± 0.058"}
{"variant": "HESKLSILMDMFPAISKSKLQVHLLENNCDLDLTIGLLL", "note": "[N29C]", "abundance fitness": "0.052 ± 0.057"}
{"variant": "HESKLSILMDMFPAISKSKLQVHLLENNNDLDLTMGLLL", "note": "[I35M]", "abundance fitness": "-0.065 ± 0.044"}
{"variant": "HESKLSILMDMFPAISKSKLQVHLLENNNDLDLTYGLLL", "note": "[I35Y]", "abundance fitness": "-0.174 ± 0.058"}
{"variant": "TESKLSILMDMFPAISKSKLQVHLLENNNDLDLTIGLLL", "note": "[H1T]", "abundance fitness": "0.467 ± 0.062"}
{"variant": "MESKLSILMDMFPAISKSKLQVHLLENNNDLDLTIGLLL", "note": "[H1M]", "abundance fitness": "0.255 ± 0.09"}
{"variant": "HESKLSILMDMFPAISKSKSQVHLLENNNDLDLTIGLLL", "note": "[L20S]", "abundance fitness": "-0.656 ± 0.26"}
{"variant": "HESKLSILMDMFPAISKSKTQVHLLENNNDLDLTIGLLL", "note": "[L20T]", "abundance fitness": "-0.702 ± 0.16"}
{"variant": "HESKLSILMDMFPAISKSKVQVHLLENNNDLDLTIGLLL", "note": "[L20V]", "abundance fitness": "-0.311 ± 0.048"}
